Consider 4 molecules from patent EP4748860A1 (Kanglitai Biomedical (Qingdao) Co., Ltd., dated 2026).

The labels stand for the following.
B1: HER2-10-hFc (Fc fusion)
chain: QVQLQESGGGLVQPGGSLRLSCTAARNIFGRNVMGWFRQAPGKQREFVAHITGGSAVIYATSVKGRFTISRDNAKNTVYLQMNNLTLDDTAVYFCRAVNDDLWGQGTQVTVSS
notes: VHH gene cloned into pABG1-Fc (human Fc fragment), expressed in FreeStyle 293-F cells, Protein A purified; also called HER2-10-Fc; not shown: human Fc fragment of vector pABG1-Fc
B2: HER2-11-hFc (Fc fusion)
chain: QVQLQESGGGLVQAGGSLRLSCAASGHTVSRNMMGWFRQAPGKEREFVSAIAWNGEDTYYAESVEGRFTISKDNVKNTIYLQMNSLKPEDTAVYYCAASLFRLWNSATAGNNRVYHYWGQGTQVTVSS
notes: VHH gene cloned into pABG1-Fc (human Fc fragment), expressed in FreeStyle 293-F cells, Protein A purified; also called HER2-11-Fc; not shown: human Fc fragment of vector pABG1-Fc
B3: HER2-8-hFc (Fc fusion)
chain: QVQLQESGGGLVQAGGSLRLSCAASGRTFSGAGVGWFRQDPEKEREFVAAIAWSGGSTRYADSVKGRFTISRDNTENTVFLQMNNLRPEDTAVYYCAATRRFYSGLTYTQRDVYDNWGQGTQVTVSS
notes: VHH gene cloned into pABG1-Fc (human Fc fragment), expressed in FreeStyle 293-F cells, Protein A purified; also called HER2-8-Fc; not shown: human Fc fragment of vector pABG1-Fc
B4: HER2-3-hFc (Fc fusion)
chain: QVQLQESGGGLVQAGDSLRLSCAASGLTFSTVGMGWFRQVLGMEREPVAGISWTGNVIGYAESVTGRFTISRDSAKNTVYLQMNSLKPEDTAVYYCAARRRGMSSYDYWGQGTQVTVSS
notes: VHH gene cloned into pABG1-Fc (human Fc fragment), expressed in FreeStyle 293-F cells, Protein A purified; also called HER2-3-Fc; not shown: human Fc fragment of vector pABG1-Fc

Chain of BSA (P02769 25-607 limits assumed): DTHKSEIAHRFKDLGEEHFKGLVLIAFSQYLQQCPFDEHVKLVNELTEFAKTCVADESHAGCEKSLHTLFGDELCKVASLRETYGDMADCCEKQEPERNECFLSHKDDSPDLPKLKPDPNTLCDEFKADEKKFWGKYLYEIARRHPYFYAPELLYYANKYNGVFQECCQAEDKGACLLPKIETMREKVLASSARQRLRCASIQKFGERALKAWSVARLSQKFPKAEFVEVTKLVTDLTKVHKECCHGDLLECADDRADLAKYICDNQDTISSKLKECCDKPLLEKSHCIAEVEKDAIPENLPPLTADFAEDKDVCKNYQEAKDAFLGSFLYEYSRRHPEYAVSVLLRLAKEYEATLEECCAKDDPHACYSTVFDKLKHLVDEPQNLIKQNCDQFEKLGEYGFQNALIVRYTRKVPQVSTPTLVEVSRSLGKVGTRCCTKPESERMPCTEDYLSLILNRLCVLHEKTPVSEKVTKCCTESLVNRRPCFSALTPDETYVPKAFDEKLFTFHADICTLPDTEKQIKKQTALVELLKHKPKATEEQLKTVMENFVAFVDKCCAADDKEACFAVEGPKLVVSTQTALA

The test concerns the target BSA (UniProt P02769 25-607). The test is described as follows: ELISA, antigen coated at 200 ng per well.
Take B1: the binding result is given as “no binding (tested: 0.2 µg per well)”. B2: the binding result is “no binding (tested: 0.2 µg per well)”.

Turning to B3, the binding result is reported as “no binding (tested: 0.2 µg per well)”. The result for B4 reads “no binding (tested: 0.2 µg per well)”.
